Target: human Rab7 Q67L (residues 2–195), GTP-loaded (human) (UniProt P51149)
Assay: crystal structure; purified PDZD8 CC and Rab7 Q67L (1 mM GTP) mixed 1:1 at total 10 mg/ml, incubated 1 h at room temperature; crystals in 0.1 M Tris-HCl pH 8.0, 25% PEG 1000, 0.1 M NaCl; space group P6(5), 2.1 Å

Sequence of human Rab7 Q67L (residues 2–195), GTP-loaded (human) (P51149 2-195 Q67L): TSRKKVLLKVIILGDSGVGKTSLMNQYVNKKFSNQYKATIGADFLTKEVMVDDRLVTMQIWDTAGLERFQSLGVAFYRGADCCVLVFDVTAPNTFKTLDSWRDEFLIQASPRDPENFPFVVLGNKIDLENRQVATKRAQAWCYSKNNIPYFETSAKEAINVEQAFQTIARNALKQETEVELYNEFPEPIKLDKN
Sequence of human PDZD8 C-terminal coiled-coil (CC) domain, residues 994–1123 (crystallisation construct) (Q8NEN9 994-1123): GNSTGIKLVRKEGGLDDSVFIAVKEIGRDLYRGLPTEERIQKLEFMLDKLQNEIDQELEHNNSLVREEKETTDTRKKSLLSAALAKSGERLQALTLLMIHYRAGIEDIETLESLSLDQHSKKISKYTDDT

stoichiometry N (Rab7 per PDZD8 CC): 2
Substance: human PDZD8 C-terminal coiled-coil (CC) domain, residues 994–1123 (crystallisation construct) (from UniProt Q8NEN9 994-1123) (domain or fragment)
